Publication PMC3272701

Target: tight-coupled 70S ribosome from Thermus thermophilus (Thermus thermophilus)
Assay: co-sedimentation

**Q.** “elongation factor G (EF-G), Thermus thermophilus HB8 (from UniProt Q5SHN5 1-691) (enzyme)” was tested. Which occupancy of EF-G in the complexes did it give?
**A.** 60 to 70%
